One protein from patent US20110236427 can be followed below.

For the data set, the system named is GST-NR2F6 fusion protein, full-length, wild-type.
GST-NR2F6 fusion protein, full-length, wild-type, sequence (chain, as listed by the source): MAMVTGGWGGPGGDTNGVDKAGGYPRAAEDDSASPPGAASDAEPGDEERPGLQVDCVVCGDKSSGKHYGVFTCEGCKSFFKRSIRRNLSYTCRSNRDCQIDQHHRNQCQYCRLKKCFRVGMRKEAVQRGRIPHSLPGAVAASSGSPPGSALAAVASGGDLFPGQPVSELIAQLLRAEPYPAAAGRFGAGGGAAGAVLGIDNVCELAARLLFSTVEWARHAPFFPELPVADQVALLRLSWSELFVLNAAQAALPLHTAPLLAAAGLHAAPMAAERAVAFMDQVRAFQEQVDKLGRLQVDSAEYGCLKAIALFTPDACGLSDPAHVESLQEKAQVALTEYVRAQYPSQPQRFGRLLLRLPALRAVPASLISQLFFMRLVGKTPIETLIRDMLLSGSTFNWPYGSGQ

B1: recombinant PKCzeta (enzyme, UniProt Q05513 1-592, looked up, species assumed)
Protein kinase C zeta type: MPSRTGPKMEGSGGRVRLKAHYGGDIFITSVDAATTFEELCEEVRDMCRLHQQHPLTLKWVDSEGDPCTVSSQMELEEAFRLARQCRDEGLIIHVFPSTPEQPGLPCPGEDKSIYRRGARRWRKLYRANGHLFQAKRFNRRAYCGQCSERIWGLARQGYRCINCKLLVHKRCHGLVPLTCRKHMDSVMPSQEPPVDDKNEDADLPSEETDGIAYISSSRKHDSIKDDSEDLKPVIDGMDGIKISQGLGLQDFDLIRVIGRGSYAKVLLVRLKKNDQIYAMKVVKKELVHDDEDIDWVQTEKHVFEQASSNPFLVGLHSCFQTTSRLFLVIEYVNGGDLMFHMQRQRKLPEEHARFYAAEICIALNFLHERGIIYRDLKLDNVLLDADGHIKLTDYGMCKEGLGPGDTTSTFCGTPNYIAPEILRGEEYGFSVDWWALGVLMFEMMAGRSPFDIITDNPDMNTEDYLFQVILEKPIRIPRFLSVKASHVLKGFLNKDPKERLGCRPQTGFSDIKSHAFFRSIDWDLLEKKQALPPFQPQITDDYGLDNFDTQFTSEPVQLTPDDEDAIKRIDQSEFEGFEYINPLLLSTEESV
Turning to B1, the “phosphorylation (32P incorporation), in vitro protein kinase assay” value was “(but not PKCzeta or PKA)”.
